Measurements reported in patent US20240002495A1 (MITSUBISHI TANABE PHARMA, published 2024).
Where no end group is shown, it is not given here.

Experiments:
[1] = target: T1, recombinant human IL-33 protein (residues 112 to 270) (ILC0701, ATGen Co. Ltd) (human, UniProt O95760 112-270); test: KinExA in PBS, alkaline-purified IgG
T1 construct: bought protein
T1 sequence: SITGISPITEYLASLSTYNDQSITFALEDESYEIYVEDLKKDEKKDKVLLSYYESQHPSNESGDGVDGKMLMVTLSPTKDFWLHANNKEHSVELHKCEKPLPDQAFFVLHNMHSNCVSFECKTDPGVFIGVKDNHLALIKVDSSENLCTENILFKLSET
Description: (§1) Mixture samples of a test antibody and a human IL-33 protein (ILC0701, available from ATGen Co. Ltd) were prepared. The human IL-33 protein was titrated to a constant concentration of test antibody (final concentration: several tens of pM to several hundreds of pM) over a wide concentration range of the human IL-33 protein (so that it covered the concentrations of the human IL-33 protein resulting from 12-step serial doubling dilutions, i.e. one- to 2048-fold, with the upper limit of final concentration set to several nM to several tens of nM). The mixture samples were incubated at a room temperature until the antigen-antibody reaction reached equilibrium. After the reaction reached equilibrium, the percentage of free anti-IL-33 antibody in each sample was analyzed using KinExA3200. The values of Kd were calculated by fitting the plot of percentages of anti-IL-33 antibody not bound to the human IL-33 protein (vertical axis) and concentrations of antigen (horizontal axis) to a theoretical formula, using a KinExA data analysis program (KinExA Pro Software v3.5.3, available from Sapidyne Instruments, Inc.). Beads for capturing the anti-IL-33 antibody were prepared by suspending 50 mg of Azlactone beads (Sapidyne) in 1 mL of coating solution (10 μg/mL human IL-33 protein (ILC0701, available from ATGen Co. Ltd), 50 mM sodium carbonate at pH of 9.6) and incubating the solution at a room temperature for one hour. The antibody for detection used was anti-human F(ab)′2-DyLight649 (Jackson, 309-495-006).

[2] = target: T2, full-length human IL-33 protein (human, UniProt O95760 1-270); test: KinExA in PBS, alkaline-purified IgG
T2 construct: also called Human IL-33 (Full-Length)
T2 sequence: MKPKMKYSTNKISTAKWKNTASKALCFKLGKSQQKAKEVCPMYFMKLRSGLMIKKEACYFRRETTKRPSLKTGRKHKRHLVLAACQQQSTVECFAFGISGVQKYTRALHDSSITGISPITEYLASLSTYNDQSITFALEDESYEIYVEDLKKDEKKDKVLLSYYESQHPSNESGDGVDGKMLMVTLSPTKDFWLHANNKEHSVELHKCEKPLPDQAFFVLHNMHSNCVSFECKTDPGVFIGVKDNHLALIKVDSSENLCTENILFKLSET
Description: as §1

[3] = target: T3, DQSITFALEDESYEIYVEDL (PEP14) (human, not fully specified); test: KinExA, alkaline-purified IgG, peptide
T3 peptide: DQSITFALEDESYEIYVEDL
Description: (§2) The mixture samples were incubated at a room temperature until the antigen-antibody reaction reached equilibrium. After the reaction reached equilibrium, the percentage of free anti-IL-33 antibody in each sample was analyzed using KinExA3200. The values of Kd were calculated by fitting the plot of percentages of anti-IL-33 antibody not bound to the human IL-33 protein (vertical axis) and concentrations of antigen (horizontal axis) to a theoretical formula, using a KinExA data analysis program (KinExA Pro Software v3.5.3, available from Sapidyne Instruments, Inc.). Beads for capturing the anti-IL-33 antibody were prepared by suspending 50 mg of Azlactone beads (Sapidyne) in 1 mL of coating solution (10 μg/mL human IL-33 protein (ILC0701, available from ATGen Co. Ltd), 50 mM sodium carbonate at pH of 9.6) and incubating the solution at a room temperature for one hour. The antibody for detection used was anti-human F(ab)′2-DyLight649 (Jackson, 309-495-006).
(§3) The anti-IL-33 monoclonal antibodies A10-1C04 and A25-3H04 bound to the epitope PEP14 as described in the Example 1. […] These peptides were synthesized, and the affinity with the alkali-purified antibodies was calculated as Kd by the KinExA experiment as in Example 9 (Table 14).

EDESYEIYV = target: T4, EDESYEIYV (human, not fully specified (N-terminus)); test: KinExA, alkaline-purified IgG, peptide
T4 construct: synthetic peptide
T4 peptide: EDESYEIYV
Description: as §2, §3

LEDESYEIYV = target: T5, LEDESYEIYV (human, not fully specified (N-terminus)); test: KinExA, alkaline-purified IgG, peptide
T5 construct: synthetic peptide
T5 peptide: LEDESYEIYV
Description: as §2, §3

B1: A10-1C04 (IgG) (antibody, V domains shown)
VH: EVQLLESGGGLVQPGGSLRLSCAASGFTFSDYYMNWVRQAPGKGLEWVSSISRYSSYIYYADSVKGRFTISRDNSKNTLYLQMNSLRAEDTAVYYCARDIGGMDVWGQGTLVTVSS
VL: QSVLTQPPSASGTPGQRVTISCTGSSSNIGAVYDVHWYQQLPGTAPKLLIYRNNQRPSGVPDRFSGSKSGTSASLAISGLRSEDEADYYCQTYDSSRWVFGGGTKLTVL
notes: tested as neutral-purified and as alkaline-purified antibody; also called V1; IGN1
- Kd [1]: 0.1 nM
- Kd [2]: 0.18 nM
- Kd [3]: 9 nM
- Kd (EDESYEIYV): 2070 nM
- Kd (LEDESYEIYV): 386 nM
